Measurements as given in patent US20250277027A1 (POPULAS BIOPHARMACEUTICAL WUHAN, published 2025).

How the values were obtained:
polypeptide C9797BL020-7 [1] = target: T1, polypeptide C9797BL020-7; experiment: affinity sorting, kinetic fit in RU, antibody as analyte solution
T1 construct: also called antigen peptide
T1 peptide: CDSVNVDKQPKYEYS

SCN9A-4-B2M = experiment: SPR, ligand SCN9A-4-B2M, analyte 5C12D2C8, 1:1 binding fit; analyte at 12.5 to 400 nM per paragraph 79
polypeptide C9797BL020-7 [2] = target: T1, polypeptide C9797BL020-7; experiment: SPR, antibody at 12.5, 25, 50, 100, 200 and 400 nM

Kd (polypeptide C9797BL020-7 [1]): 4.55 nM
koff (polypeptide C9797BL020-7 [1]): 0.00023 s⁻¹
kon (polypeptide C9797BL020-7 [1]): 50600 M⁻¹ s⁻¹
kon (SCN9A-4-B2M): 28100 M⁻¹ s⁻¹
Kd (polypeptide C9797BL020-7 [2]): 8.78 nM
koff (polypeptide C9797BL020-7 [2]): 0.000247 s⁻¹
B1: monoclonal antibody 5C12D2C8 (antibody, V domains shown)
VH: EVQLVESGGDLVKPGGSLKLSCAASGFTFSSGGMSWVRQTPDKRLEWVATISNGGGETYYEDSVKGRFTISRDNAKNTLYLQMNSLKSEDTAMYYCAREEYEGTWYEDVWGAGTTVTVSS
VL: DVLMTQTPLSLPVSLGDQASISCTSSQSGVHSNGNTELEWYLQKPGQSPKLLIYKVSNRTSGVPDRFSGSGSGTDFTLKISRVEAEDLGVYYCGQGSHVGRTFGGGTKLEIKR
